Values quoted from earlier work in PMC3253530.
Where two headings read alike, the source gives them in different places.

Experiments:
[1] = target: PTPζ (Homo sapiens) (UniProt P23471)
[2] = target: LRP-1 (Homo sapiens) (UniProt Q07954)
[3] = target: PTPζ (Homo sapiens) (UniProt P23471); remark: listed apart in the source

UniProt P23471, sequence (P23471 25-1636): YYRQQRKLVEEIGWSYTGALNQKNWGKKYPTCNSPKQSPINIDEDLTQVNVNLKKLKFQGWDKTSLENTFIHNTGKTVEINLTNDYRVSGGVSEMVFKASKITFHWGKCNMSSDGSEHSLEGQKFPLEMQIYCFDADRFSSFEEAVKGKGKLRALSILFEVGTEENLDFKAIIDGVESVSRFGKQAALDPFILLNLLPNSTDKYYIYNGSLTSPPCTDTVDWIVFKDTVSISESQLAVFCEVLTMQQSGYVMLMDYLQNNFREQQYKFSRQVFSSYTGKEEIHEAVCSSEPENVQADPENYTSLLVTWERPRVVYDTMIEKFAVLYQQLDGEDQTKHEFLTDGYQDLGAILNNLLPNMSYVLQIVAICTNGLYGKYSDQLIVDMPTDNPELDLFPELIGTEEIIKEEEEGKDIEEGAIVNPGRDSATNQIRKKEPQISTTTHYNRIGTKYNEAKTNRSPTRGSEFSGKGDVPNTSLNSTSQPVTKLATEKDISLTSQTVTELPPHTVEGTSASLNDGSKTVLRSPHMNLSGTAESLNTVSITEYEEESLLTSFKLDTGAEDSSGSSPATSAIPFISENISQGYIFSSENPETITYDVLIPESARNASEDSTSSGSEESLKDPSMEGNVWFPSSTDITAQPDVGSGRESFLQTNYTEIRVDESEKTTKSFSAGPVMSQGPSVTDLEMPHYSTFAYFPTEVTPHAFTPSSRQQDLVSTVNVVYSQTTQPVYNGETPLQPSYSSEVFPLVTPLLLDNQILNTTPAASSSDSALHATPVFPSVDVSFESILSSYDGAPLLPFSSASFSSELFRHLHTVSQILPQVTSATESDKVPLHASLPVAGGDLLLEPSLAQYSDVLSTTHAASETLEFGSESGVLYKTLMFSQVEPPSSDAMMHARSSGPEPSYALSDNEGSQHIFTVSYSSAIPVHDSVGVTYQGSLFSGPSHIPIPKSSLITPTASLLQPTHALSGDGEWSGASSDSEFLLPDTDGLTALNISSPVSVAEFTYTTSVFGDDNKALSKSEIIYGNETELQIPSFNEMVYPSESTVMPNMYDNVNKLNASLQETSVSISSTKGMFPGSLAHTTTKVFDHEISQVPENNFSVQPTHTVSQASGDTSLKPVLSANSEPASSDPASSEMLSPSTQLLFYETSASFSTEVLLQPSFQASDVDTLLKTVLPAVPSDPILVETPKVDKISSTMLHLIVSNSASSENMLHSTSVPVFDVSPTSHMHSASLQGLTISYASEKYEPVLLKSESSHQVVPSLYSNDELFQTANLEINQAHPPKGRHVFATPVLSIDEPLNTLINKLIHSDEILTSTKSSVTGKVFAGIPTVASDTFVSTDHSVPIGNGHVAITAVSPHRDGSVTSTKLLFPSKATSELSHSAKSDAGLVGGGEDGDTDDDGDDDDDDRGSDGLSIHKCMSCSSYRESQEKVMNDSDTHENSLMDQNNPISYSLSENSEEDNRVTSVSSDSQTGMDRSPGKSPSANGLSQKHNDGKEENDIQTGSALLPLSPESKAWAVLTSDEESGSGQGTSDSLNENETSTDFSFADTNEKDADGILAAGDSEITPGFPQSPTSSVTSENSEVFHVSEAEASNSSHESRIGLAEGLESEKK

For Midkine (from UniProt P21741), the Kd [1] is given as 0.56 nM, the Kd [2] is given as 3.5 nM and the Kd [3] is given as 8.8 nM.
